Assay results as given in publication PMC9584538 (Cell reports, 2022).
Several values for one entry are separate records, joined by “and”; a condition that tells them apart may be missing. Equal entries are not always repeated.

Assays:
SEC = molecular target: the molecule itself; assay: SEC
[1] = molecular target: T1, PARL-protease-activated Skd3 (human CLPB), wild type (human, UniProt Q9H078 127-707); assay: FRET or BRET
T1 sequence (looked up): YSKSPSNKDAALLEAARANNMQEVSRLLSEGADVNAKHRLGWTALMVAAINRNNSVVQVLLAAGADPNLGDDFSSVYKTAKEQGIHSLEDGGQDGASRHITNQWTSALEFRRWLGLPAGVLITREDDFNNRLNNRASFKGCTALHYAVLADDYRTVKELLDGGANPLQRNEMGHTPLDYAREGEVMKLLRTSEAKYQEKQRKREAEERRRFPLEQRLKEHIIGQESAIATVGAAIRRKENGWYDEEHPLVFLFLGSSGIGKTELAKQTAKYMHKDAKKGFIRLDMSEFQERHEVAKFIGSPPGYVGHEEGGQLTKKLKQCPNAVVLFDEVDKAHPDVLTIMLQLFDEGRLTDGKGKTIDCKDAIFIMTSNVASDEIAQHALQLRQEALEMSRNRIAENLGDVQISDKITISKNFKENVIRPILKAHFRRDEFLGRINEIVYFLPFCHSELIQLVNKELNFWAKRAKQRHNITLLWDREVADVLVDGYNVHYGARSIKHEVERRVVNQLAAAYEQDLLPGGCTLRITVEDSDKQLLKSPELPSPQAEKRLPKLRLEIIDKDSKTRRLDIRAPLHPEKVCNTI

B1: _(PARL)Skd3^A591V (MGCA7-linked variant) (enzyme, human, UniProt Q9H078 127-707, looked up)
chain: YSKSPSNKDAALLEAARANNMQEVSRLLSEGADVNAKHRLGWTALMVAAINRNNSVVQVLLAAGADPNLGDDFSSVYKTAKEQGIHSLEDGGQDGASRHITNQWTSALEFRRWLGLPAGVLITREDDFNNRLNNRASFKGCTALHYAVLADDYRTVKELLDGGANPLQRNEMGHTPLDYAREGEVMKLLRTSEAKYQEKQRKREAEERRRFPLEQRLKEHIIGQESAIATVGAAIRRKENGWYDEEHPLVFLFLGSSGIGKTELAKQTAKYMHKDAKKGFIRLDMSEFQERHEVAKFIGSPPGYVGHEEGGQLTKKLKQCPNAVVLFDEVDKAHPDVLTIMLQLFDEGRLTDGKGKTIDCKDAIFIMTSNVASDEIAQHALQLRQEALEMSRNRIAENLGDVQISDKITISKNFKENVIRPILKAHFRRDEFLGRINEIVYFLPFCHSELIQLVNKELNFWAKRVKQRHNITLLWDREVADVLVDGYNVHYGARSIKHEVERRVVNQLAAAYEQDLLPGGCTLRITVEDSDKQLLKSPELPSPQAEKRLPKLRLEIIDKDSKTRRLDIRAPLHPEKVCNTI
- stoichiometry N (SEC): 6 and 12
- binding result [1]: binds

B2: _(PARL)Skd3^K387A (Walker A) (enzyme, human, UniProt Q9H078 127-707, looked up)
chain: YSKSPSNKDAALLEAARANNMQEVSRLLSEGADVNAKHRLGWTALMVAAINRNNSVVQVLLAAGADPNLGDDFSSVYKTAKEQGIHSLEDGGQDGASRHITNQWTSALEFRRWLGLPAGVLITREDDFNNRLNNRASFKGCTALHYAVLADDYRTVKELLDGGANPLQRNEMGHTPLDYAREGEVMKLLRTSEAKYQEKQRKREAEERRRFPLEQRLKEHIIGQESAIATVGAAIRRKENGWYDEEHPLVFLFLGSSGIGATELAKQTAKYMHKDAKKGFIRLDMSEFQERHEVAKFIGSPPGYVGHEEGGQLTKKLKQCPNAVVLFDEVDKAHPDVLTIMLQLFDEGRLTDGKGKTIDCKDAIFIMTSNVASDEIAQHALQLRQEALEMSRNRIAENLGDVQISDKITISKNFKENVIRPILKAHFRRDEFLGRINEIVYFLPFCHSELIQLVNKELNFWAKRAKQRHNITLLWDREVADVLVDGYNVHYGARSIKHEVERRVVNQLAAAYEQDLLPGGCTLRITVEDSDKQLLKSPELPSPQAEKRLPKLRLEIIDKDSKTRRLDIRAPLHPEKVCNTI
- binding result [1]: binds

B3: _(PARL)Skd3^N496K (SCN-linked variant, sensor-1) (enzyme, human, UniProt Q9H078 127-707, looked up)
chain: YSKSPSNKDAALLEAARANNMQEVSRLLSEGADVNAKHRLGWTALMVAAINRNNSVVQVLLAAGADPNLGDDFSSVYKTAKEQGIHSLEDGGQDGASRHITNQWTSALEFRRWLGLPAGVLITREDDFNNRLNNRASFKGCTALHYAVLADDYRTVKELLDGGANPLQRNEMGHTPLDYAREGEVMKLLRTSEAKYQEKQRKREAEERRRFPLEQRLKEHIIGQESAIATVGAAIRRKENGWYDEEHPLVFLFLGSSGIGKTELAKQTAKYMHKDAKKGFIRLDMSEFQERHEVAKFIGSPPGYVGHEEGGQLTKKLKQCPNAVVLFDEVDKAHPDVLTIMLQLFDEGRLTDGKGKTIDCKDAIFIMTSKVASDEIAQHALQLRQEALEMSRNRIAENLGDVQISDKITISKNFKENVIRPILKAHFRRDEFLGRINEIVYFLPFCHSELIQLVNKELNFWAKRAKQRHNITLLWDREVADVLVDGYNVHYGARSIKHEVERRVVNQLAAAYEQDLLPGGCTLRITVEDSDKQLLKSPELPSPQAEKRLPKLRLEIIDKDSKTRRLDIRAPLHPEKVCNTI
- stoichiometry N (SEC): 6
- binding result [1]: binds

B4: _(PARL)Skd3^R408G (MGCA7-linked variant) (enzyme, human, UniProt Q9H078 127-707, looked up)
chain: YSKSPSNKDAALLEAARANNMQEVSRLLSEGADVNAKHRLGWTALMVAAINRNNSVVQVLLAAGADPNLGDDFSSVYKTAKEQGIHSLEDGGQDGASRHITNQWTSALEFRRWLGLPAGVLITREDDFNNRLNNRASFKGCTALHYAVLADDYRTVKELLDGGANPLQRNEMGHTPLDYAREGEVMKLLRTSEAKYQEKQRKREAEERRRFPLEQRLKEHIIGQESAIATVGAAIRRKENGWYDEEHPLVFLFLGSSGIGKTELAKQTAKYMHKDAKKGFIGLDMSEFQERHEVAKFIGSPPGYVGHEEGGQLTKKLKQCPNAVVLFDEVDKAHPDVLTIMLQLFDEGRLTDGKGKTIDCKDAIFIMTSNVASDEIAQHALQLRQEALEMSRNRIAENLGDVQISDKITISKNFKENVIRPILKAHFRRDEFLGRINEIVYFLPFCHSELIQLVNKELNFWAKRAKQRHNITLLWDREVADVLVDGYNVHYGARSIKHEVERRVVNQLAAAYEQDLLPGGCTLRITVEDSDKQLLKSPELPSPQAEKRLPKLRLEIIDKDSKTRRLDIRAPLHPEKVCNTI
- stoichiometry N (SEC): 12
- binding result [1]: binds

B5: _(PARL)Skd3^R475Q (MGCA7-linked variant) (enzyme, human, UniProt Q9H078 127-707, looked up)
chain: YSKSPSNKDAALLEAARANNMQEVSRLLSEGADVNAKHRLGWTALMVAAINRNNSVVQVLLAAGADPNLGDDFSSVYKTAKEQGIHSLEDGGQDGASRHITNQWTSALEFRRWLGLPAGVLITREDDFNNRLNNRASFKGCTALHYAVLADDYRTVKELLDGGANPLQRNEMGHTPLDYAREGEVMKLLRTSEAKYQEKQRKREAEERRRFPLEQRLKEHIIGQESAIATVGAAIRRKENGWYDEEHPLVFLFLGSSGIGKTELAKQTAKYMHKDAKKGFIRLDMSEFQERHEVAKFIGSPPGYVGHEEGGQLTKKLKQCPNAVVLFDEVDKAHPDVLTIMLQLFDEGQLTDGKGKTIDCKDAIFIMTSNVASDEIAQHALQLRQEALEMSRNRIAENLGDVQISDKITISKNFKENVIRPILKAHFRRDEFLGRINEIVYFLPFCHSELIQLVNKELNFWAKRAKQRHNITLLWDREVADVLVDGYNVHYGARSIKHEVERRVVNQLAAAYEQDLLPGGCTLRITVEDSDKQLLKSPELPSPQAEKRLPKLRLEIIDKDSKTRRLDIRAPLHPEKVCNTI
- stoichiometry N (SEC): 12
- binding result [1]: binds

B6: _(PARL)Skd3^R561G (SCN-linked variant, Arg finger) (enzyme, human, UniProt Q9H078 127-707, looked up)
chain: YSKSPSNKDAALLEAARANNMQEVSRLLSEGADVNAKHRLGWTALMVAAINRNNSVVQVLLAAGADPNLGDDFSSVYKTAKEQGIHSLEDGGQDGASRHITNQWTSALEFRRWLGLPAGVLITREDDFNNRLNNRASFKGCTALHYAVLADDYRTVKELLDGGANPLQRNEMGHTPLDYAREGEVMKLLRTSEAKYQEKQRKREAEERRRFPLEQRLKEHIIGQESAIATVGAAIRRKENGWYDEEHPLVFLFLGSSGIGKTELAKQTAKYMHKDAKKGFIRLDMSEFQERHEVAKFIGSPPGYVGHEEGGQLTKKLKQCPNAVVLFDEVDKAHPDVLTIMLQLFDEGRLTDGKGKTIDCKDAIFIMTSNVASDEIAQHALQLRQEALEMSRNRIAENLGDVQISDKITISKNFKENVIRPILKAHFRRDEFLGGINEIVYFLPFCHSELIQLVNKELNFWAKRAKQRHNITLLWDREVADVLVDGYNVHYGARSIKHEVERRVVNQLAAAYEQDLLPGGCTLRITVEDSDKQLLKSPELPSPQAEKRLPKLRLEIIDKDSKTRRLDIRAPLHPEKVCNTI
- stoichiometry N (SEC): 12
- binding result [1]: binds

B7: _(PARL)Skd3^R620C (SCN-linked variant, sensor-2) (enzyme, human, UniProt Q9H078 127-707, looked up)
chain: YSKSPSNKDAALLEAARANNMQEVSRLLSEGADVNAKHRLGWTALMVAAINRNNSVVQVLLAAGADPNLGDDFSSVYKTAKEQGIHSLEDGGQDGASRHITNQWTSALEFRRWLGLPAGVLITREDDFNNRLNNRASFKGCTALHYAVLADDYRTVKELLDGGANPLQRNEMGHTPLDYAREGEVMKLLRTSEAKYQEKQRKREAEERRRFPLEQRLKEHIIGQESAIATVGAAIRRKENGWYDEEHPLVFLFLGSSGIGKTELAKQTAKYMHKDAKKGFIRLDMSEFQERHEVAKFIGSPPGYVGHEEGGQLTKKLKQCPNAVVLFDEVDKAHPDVLTIMLQLFDEGRLTDGKGKTIDCKDAIFIMTSNVASDEIAQHALQLRQEALEMSRNRIAENLGDVQISDKITISKNFKENVIRPILKAHFRRDEFLGRINEIVYFLPFCHSELIQLVNKELNFWAKRAKQRHNITLLWDREVADVLVDGYNVHYGACSIKHEVERRVVNQLAAAYEQDLLPGGCTLRITVEDSDKQLLKSPELPSPQAEKRLPKLRLEIIDKDSKTRRLDIRAPLHPEKVCNTI
- stoichiometry N (SEC): 12
- binding result [1]: binds
